Assays:
[1] = biological target: Fc-tagged human IL-2Rαβγ (Acro, ILG-H5257) (human) (UniProt P01589)
[2] = biological target: HCW9302 (IL-2/TF/IL-2 fusion protein) (human) (UniProt P13726); assay: SEC; HPLC-SEC profile of purified native HCW9302
[3] = biological target: Fc-tagged human IL-2Rα (Acro, ILA-H5251) (human) (UniProt P01589); assay: SPR; Biacore 8K; Fc-tagged receptors captured by immobilised anti-human IgG (Fc) antibody on CM5 chips; 2-fold dilutions of HCW9302 or IL-2 injected 120 s, dissociation 300 s; regeneration 3 M magnesium chloride; 1:1 fitting model; KD apparent
[4] = biological target: Fc-tagged human IL-2Rαβγ (Acro, ILG-H5257) (human) (UniProt P01589); assay: as above
[5] = biological target: Fc-tagged human IL-2Rβγ (Acro, ILG-H5254) (human) (UniProt P14784); assay: as above
[6] = biological target: His-tagged cynomolgus IL-2Rα (Sino, 90265-C08H) (cynomolgus monkey); assay: SPR; His-tagged human, mouse or cynomolgus IL-2Rα chemically immobilised by amine coupling on CM5 chips; 2-fold dilutions of HCW9302 or IL-2 injected 90 s, dissociation 210 s; regeneration 3 M magnesium chloride; 1:1 fitting model; KD apparent
[7] = biological target: His-tagged human IL-2Rα (Acro, ILA-H5251) (human) (UniProt P01589); assay: as above
[8] = biological target: His-tagged mouse IL-2Rα (Acro, ILG-M52H9) (mouse) (UniProt P01590); assay: as above
Sequence of UniProt P01590 (P01590 22-236): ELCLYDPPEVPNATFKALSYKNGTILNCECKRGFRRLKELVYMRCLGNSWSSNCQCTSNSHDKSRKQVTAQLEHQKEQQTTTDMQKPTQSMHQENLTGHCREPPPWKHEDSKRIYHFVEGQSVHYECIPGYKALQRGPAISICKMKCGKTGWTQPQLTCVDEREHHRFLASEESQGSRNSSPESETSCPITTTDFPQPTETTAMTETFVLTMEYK

Sequence of UniProt P14784 (P14784 27-240, chain 1 of 2): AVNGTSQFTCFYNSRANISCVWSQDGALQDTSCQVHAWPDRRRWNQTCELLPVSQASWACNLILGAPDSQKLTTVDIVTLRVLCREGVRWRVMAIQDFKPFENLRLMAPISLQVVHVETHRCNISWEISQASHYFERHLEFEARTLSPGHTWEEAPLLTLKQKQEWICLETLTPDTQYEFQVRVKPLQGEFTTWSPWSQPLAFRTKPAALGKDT
Sequence of UniProt P14784 (P31785 23-262, chain 2 of 2, further chain): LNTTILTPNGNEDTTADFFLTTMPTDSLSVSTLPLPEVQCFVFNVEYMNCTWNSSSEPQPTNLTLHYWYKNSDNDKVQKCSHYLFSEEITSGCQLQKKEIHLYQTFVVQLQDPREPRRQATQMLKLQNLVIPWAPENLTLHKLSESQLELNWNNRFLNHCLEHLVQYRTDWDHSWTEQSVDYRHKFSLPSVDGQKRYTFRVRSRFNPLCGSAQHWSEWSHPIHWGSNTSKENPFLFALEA

Row | Substance | phosphorylation of STAT5 in human Treg cells (PBMC, 30 min, 0.15-15000 pM), half-maximal stimulation (EC50) [1] [pM] | stoichiometry N [2] | Kd [3] [pM] | koff [3] [s⁻¹] | Kd [4] [pM] | koff [4] [s⁻¹] | kon [4] [M⁻¹ s⁻¹] | Kd [5] [pM] | koff [5] [s⁻¹] | kon [5] [M⁻¹ s⁻¹] | Kd [6] [pM] | koff [6] [s⁻¹] | kon [6] [M⁻¹ s⁻¹] | Kd [7] [pM] | koff [7] [s⁻¹] | kon [7] [M⁻¹ s⁻¹] | Kd [8] [pM] | koff [8] [s⁻¹] | kon [8] [M⁻¹ s⁻¹]
1 | HCW9302 (IL-2/TF/IL-2 fusion protein) (from UniProt P13726 33-251) (ligand) | 6.12 | 2 | 1.99 | 0.107 | 2.01 | 0.000771 | 3.83e+08 | 117 | 0.00017 | 1.45e+06 | 3.19 | 0.000457 | 1.43e+08 | 13.2 | 0.00289 | 2.18e+08 | 296 | 0.000918 | 3.1e+06
2 | aldesleukin (Proleukin), clinical grade rhIL-2 (from UniProt P60568 21-153) (ligand) | 43.1 | – | – | – | – | – | – | – | – | – | – | – | – | – | – | – | – | – | –
3 | human IL-2 (Acro, S13-H5113) (from UniProt P60568 21-153) (ligand) | – | – | – | – | – | – | – | – | – | – | 16300 | 0.212 | 1.3e+08 | – | – | – | – | – | –

Source: paper PMC9907325
